Changes are numbered by the printed parent chain.
Experiments:
Assay in all cases: filter
Details in all cases: J = PPdU at every J; SB18T0.01 + 1 mM DTT, 37 C
[1] = biological target: T1, RIG-I K858A (Homo sapiens) (UniProt O95786)
T1 sequence: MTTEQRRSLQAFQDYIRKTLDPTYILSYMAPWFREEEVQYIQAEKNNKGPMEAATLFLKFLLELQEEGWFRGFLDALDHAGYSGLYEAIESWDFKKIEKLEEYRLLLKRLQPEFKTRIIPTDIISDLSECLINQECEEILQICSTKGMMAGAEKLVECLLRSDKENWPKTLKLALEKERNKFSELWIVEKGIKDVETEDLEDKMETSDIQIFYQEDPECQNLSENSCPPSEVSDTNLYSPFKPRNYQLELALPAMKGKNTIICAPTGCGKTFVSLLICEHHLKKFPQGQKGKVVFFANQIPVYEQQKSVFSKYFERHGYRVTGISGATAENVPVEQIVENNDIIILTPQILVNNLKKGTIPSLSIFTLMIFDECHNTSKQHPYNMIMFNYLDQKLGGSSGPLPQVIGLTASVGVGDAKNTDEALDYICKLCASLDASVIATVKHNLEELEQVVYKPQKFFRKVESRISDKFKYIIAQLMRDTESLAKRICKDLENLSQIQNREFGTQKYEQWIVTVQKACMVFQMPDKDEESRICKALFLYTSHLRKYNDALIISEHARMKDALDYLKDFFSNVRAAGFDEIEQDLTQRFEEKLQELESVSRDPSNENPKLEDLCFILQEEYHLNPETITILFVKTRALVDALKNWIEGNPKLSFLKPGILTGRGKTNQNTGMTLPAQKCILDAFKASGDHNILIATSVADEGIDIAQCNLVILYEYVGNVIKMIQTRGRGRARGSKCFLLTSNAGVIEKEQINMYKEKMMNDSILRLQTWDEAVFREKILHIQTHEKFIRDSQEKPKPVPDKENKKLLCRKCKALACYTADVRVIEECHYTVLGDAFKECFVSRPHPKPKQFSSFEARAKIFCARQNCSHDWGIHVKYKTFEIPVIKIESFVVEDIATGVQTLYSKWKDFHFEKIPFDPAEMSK

[2] = biological target: T2, RIG-I N668A (Homo sapiens) (UniProt O95786)
T2 sequence: T1 sequence with N668A, A858K

[3] = biological target: T3, RIG-I H847A (Homo sapiens) (UniProt O95786)
T3 sequence: T1 sequence with H847A, A858K

ATCTCTGTGTCATGTGTTTTAATGTCAGTTTAATGATGAGG [14832-55_8]
Kd [1]: 2.9 nM
Kd [2]: 0.11 nM
Kd [3]: 9.9 nM
